This note sets out measurements from patent publication US12077763B2, “RNA-based control of powdery mildew” (Greenlight Biosciences, Inc., priority 2021, dated 2024).

The data set has as its system E. necator. The data set is described as follows: Leaf disc assay, dry inoculum (settling tower), decrease in disease severity / hyphal growth (Example 2). The note with it: decrease in disease severity (hyphal growth) relative to untreated control, value ± SE; for % decrease =/− SE TP1: time point 1 (untreated control hyphal growth ≥50%); for % decrease =/− SE TP2: time point 2.

B1: GS3337 (nucleic acid)
sense: UUUAUUAUGGCACUGGCGUGAAAAUACCUUAUCCCAAGGCAGAUACCGAUAAUGCGAGUGCUCAUGGAUAUACAAACAUUAAGGGCGGUAAUCCGGAAGGACGAGCUUUUCACCAUGGUAGACUAAUAUCUCAGCUCCGUAGAUGCUGCUCCCAGAACCCGAACAUCAAAAUUGUUGAAACGCUGGUUACAGAGACUAUUACGAAUCCUCAAACCCAAACUGUAAUUGGCGUAAGGUCAGAGACAAUGAAUGAUAAAACAGGCAAAAGAGAAGCCGACUACUAUUUGGGAGAUCUCACAAUUAUCGCCGAUGGAUAUGCAUCUAAAUUCCGAAAGCAGUAUAUAGACAAGUCACCCAUCGUAAAAAGCAAAUUCUAUGCUUUAGAGCUGAUAGAUU
antisense: AAUCUAUCAGCUCUAAAGCAUAGAAUUUGCUUUUUACGAUGGGUGACUUGUCUAUAUACUGCUUUCGGAAUUUAGAUGCAUAUCCAUCGGCGAUAAUUGUGAGAUCUCCCAAAUAGUAGUCGGCUUCUCUUUUGCCUGUUUUAUCAUUCAUUGUCUCUGACCUUACGCCAAUUACAGUUUGGGUUUGAGGAUUCGUAAUAGUCUCUGUAACCAGCGUUUCAACAAUUUUGAUGUUCGGGUUCUGGGAGCAGCAUCUACGGAGCUGAGAUAUUAGUCUACCAUGGUGAAAAGCUCGUCCUUCCGGAUUACCGCCCUUAAUGUUUGUAUAUCCAUGAGCACUCGCAUUAUCGGUAUCUGCCUUGGGAUAAGGUAUUUUCACGCCAGUGCCAUAAUAAA
As to B1, the “% decrease =/− SE TP1” value is 19 ± 5% and the “% decrease =/− SE TP2” value turned out to be 15 ± 7%.

B2: GS3343 (nucleic acid)
sense: CUAGCACUUACGAGCACGUCUCUUUGAAUUCAACUAGAGACUCACAAUUAUACCUUCCUCCUAUUAAAUCUUUAGUAUUGGAUACGAAAAAUGAGGGAAGUUAUUAGUGUUAAUGUUGGCCAAGCUGGGUGCCAAAUAGCAAACUCUUGCUGGGAGCUCUAUUGCCUUGAGCAUGGUAUACAGCCUGAUGGUUACUUAACGGAGAAGCGCAAGGCCGCCGAACCUGACGAAGGUUUCAGCACUUUUUUUUCAGAGACUGGUCAGGGAAAAUACGUACCUAGAACUAUUUAUUGUGAUCUUGAACCAAAUGUAGUCGAUGAAGUUCGUACGGGUACUUAUCGUAGCUUAUUCCACCCCGAGCAAAUGAUCACCGGAAAAGAAGAUGCAUCAAACAAUUA
antisense: UAAUUGUUUGAUGCAUCUUCUUUUCCGGUGAUCAUUUGCUCGGGGUGGAAUAAGCUACGAUAAGUACCCGUACGAACUUCAUCGACUACAUUUGGUUCAAGAUCACAAUAAAUAGUUCUAGGUACGUAUUUUCCCUGACCAGUCUCUGAAAAAAAAGUGCUGAAACCUUCGUCAGGUUCGGCGGCCUUGCGCUUCUCCGUUAAGUAACCAUCAGGCUGUAUACCAUGCUCAAGGCAAUAGAGCUCCCAGCAAGAGUUUGCUAUUUGGCACCCAGCUUGGCCAACAUUAACACUAAUAACUUCCCUCAUUUUUCGUAUCCAAUACUAAAGAUUUAAUAGGAGGAAGGUAUAAUUGUGAGUCUCUAGUUGAAUUCAAAGAGACGUGCUCGUAAGUGCUAG
Consider B2, for which the “% decrease =/− SE TP1” value was 7 ± 6%.

B3: GS3351 (nucleic acid)
sense: AAGAAACAGACAGAUGAUUUUAUCAUAUUUCAAGGUAUAUUUGAAUUUAGUGAAUCUAGUUUAAUAUAAUUUAAAUUUAUUCGAUUAUCACCAACCUAUGAAAAAAUCAUUUCAUCCCAAUUCCGACAUGAAUUUGUAGUGUCUGACAGGUUUGUUUAAAAACGAAGUGGUGUAAAGAACCAUCGAUUCUUUCCACUUAAAUAUCUCUCCUCUAAGGCUUUCUUAACCACUUUCUUGGCAUCCUCUCGCUGCGAUACUUCCUUGAAUGUUUCUGUAGAUAUUACGUUUUUAAGACCUUCUAAUUCGAGUGUGUAACGUGUUGGCAUAAUAUGAUUAUAAUUGAUAACUUUUAUAAAA
antisense: UUUUAUAAAAGUUAUCAAUUAUAAUCAUAUUAUGCCAACACGUUACACACUCGAAUUAGAAGGUCUUAAAAACGUAAUAUCUACAGAAACAUUCAAGGAAGUAUCGCAGCGAGAGGAUGCCAAGAAAGUGGUUAAGAAAGCCUUAGAGGAGAGAUAUUUAAGUGGAAAGAAUCGAUGGUUCUUUACACCACUUCGUUUUUAAACAAACCUGUCAGACACUACAAAUUCAUGUCGGAAUUGGGAUGAAAUGAUUUUUUCAUAGGUUGGUGAUAAUCGAAUAAAUUUAAAUUAUAUUAAACUAGAUUCACUAAAUUCAAAUAUACCUUGAAAUAUGAUAAAAUCAUCUGUCUGUUUCUU
In the case of B3, the “% decrease =/− SE TP1” value is recorded as 4 ± 7%.

B4: GS1798: dsRNA trigger SEQ ID NO 192; gene target Tip elongation aberrant protein 1 (nucleic acid)
DNA: AAATGTGTACCACCTTCTTGATGTAATTCTGAACGCAGCCAAATCTCCCAAGTCAGATCCATCGTCAGCCCGTCCTCCAAAGACATACATCACATCGTCAACAATTGCTGCAGCATGACCTTCTCTTGGAACCGGTATATATCCTATGCAGTCCAAAAGAGTCCAGGAGTTCGGTATCGGATCATAACACCAAACATCGTTATACCATTGAAGACCATTTGTTCCGCCAAACAAGTAAAGCTTTTCATTATATGTCACAACTGAGTGATTTGTTCTAGCTGATGGTATTTGTCCTACTGGGGGTCCACCATCCTCACTATTTTTAATGAGAATTTCCCACCTGTTCGTAGGGACTTGCAAAAGATTCAAATCAAAAGCCACAAGGTCATTCATAAAATAACCCTCTACTTGCCCCCCGAATACGTAGATTTTAGACCCTAGTATATTGAGAGAATGACCATAACGCCCCGCGGGCCGTGGCCCGGCAGGTATAGCTCTGGACCATTGTCGGGTAGAGGTATTAAGTAAGTAAAGAGTTTCATCTAATACGTCAGAATCGTCCATTTTAGTATCCCCACCATATACAATAAAAGCATTT
Consider B4, for which the “% decrease =/− SE TP1” value was 44 ± 4% and the “% decrease =/− SE TP2” value was 47 ± 5%.

B5: GS3346 (nucleic acid)
sense: GUAGAGUUGAGCUUGGCCCUAAUGGCGUAAAUAAGAUCCAUGAAGUGGGAAACCUUGCUCCUGAAGAACAAGGUCUUUUAAAAGCUGCUCUAGUUGAUUUGUUAAAGAAUAUCGAAAAAGGAAUCAAAUUUGUUAACCAGAACCCCGGUGAAUAAAUAAAAUGUUAUUCAAUUUACAAUCUGUUGUUUUUUGAUCGUGGAUACCUUGAUAUUCAGUAACGAGGGAGAAUCAUUCUCCUGUCCCAAAAAAGUACUAUCUACUAUCUUAAAUUUUAUGGAAUCUUGAAUUUGUCCAAUGUAUCAAUAGAAAAAUUCUUUCAAAUUACAAGUCAAAAGUAUUAUGAAAAUUAAAAAGGACUAAUCCUCUUACAUAGAUAUAUAUAAAUAUA
antisense: UAUAUUUAUAUAUAUCUAUGUAAGAGGAUUAGUCCUUUUUAAUUUUCAUAAUACUUUUGACUUGUAAUUUGAAAGAAUUUUUCUAUUGAUACAUUGGACAAAUUCAAGAUUCCAUAAAAUUUAAGAUAGUAGAUAGUACUUUUUUGGGACAGGAGAAUGAUUCUCCCUCGUUACUGAAUAUCAAGGUAUCCACGAUCAAAAAACAACAGAUUGUAAAUUGAAUAACAUUUUAUUUAUUCACCGGGGUUCUGGUUAACAAAUUUGAUUCCUUUUUCGAUAUUCUUUAACAAAUCAACUAGAGCAGCUUUUAAAAGACCUUGUUCUUCAGGAGCAAGGUUUCCCACUUCAUGGAUCUUAUUUACGCCAUUAGGGCCAAGCUCAACUCUAC
With B5, the “% decrease =/− SE TP1” value turned out to be 3 ± 6%.

B6: GS3344 (nucleic acid)
sense: GACUAUUGUCCUGACUAAACUAUAUACCAUCUGCUAACACGAUCCUCAAAGCAAAAUUUUUAACCGAUGAUCAUAAGUCAUGUAAAAGUUGAAAUUUCAACACACACCAAGAAAAAUAGCCUUGGUCUUUCAAUUUACAGCAUCCAUAUGGAUGCUAUUUUCUUAUAUAUUUCACCUACCUCCUGAGAACUGCAUCAAGAUUCGAGGUCGUUUCUUUAUAUAAUCAUGUCAAAUAAUGCAUGAUAAAUGAGUAAGAGGCUCUAGGCAGUCAAACUCAAAGAAUUGUCUUCAAUUGUAUUGUCAUUUUAUCUCAUUUGAUAAUGAGUUGUAGCCGCAACUCAAAUCAUUUUUCAUUUUUUGAAAAUGAAGUAAAAGACCGGUUUAAAAAAUUAAAUAUC
antisense: GAUAUUUAAUUUUUUAAACCGGUCUUUUACUUCAUUUUCAAAAAAUGAAAAAUGAUUUGAGUUGCGGCUACAACUCAUUAUCAAAUGAGAUAAAAUGACAAUACAAUUGAAGACAAUUCUUUGAGUUUGACUGCCUAGAGCCUCUUACUCAUUUAUCAUGCAUUAUUUGACAUGAUUAUAUAAAGAAACGACCUCGAAUCUUGAUGCAGUUCUCAGGAGGUAGGUGAAAUAUAUAAGAAAAUAGCAUCCAUAUGGAUGCUGUAAAUUGAAAGACCAAGGCUAUUUUUCUUGGUGUGUGUUGAAAUUUCAACUUUUACAUGACUUAUGAUCAUCGGUUAAAAAUUUUGCUUUGAGGAUCGUGUUAGCAGAUGGUAUAUAGUUUAGUCAGGACAAUAGUC
Regarding B6, the “% decrease =/− SE TP1” value was found to be 1 ± 7%.

B7: GS3347 (nucleic acid)
sense: GUGAGUAUCAGGUGUAUAAAUAAAACGUAUAAAAAUGUGAUGUUAUAGAUCGACGGUCAAAGAUUUCUAGAGAUUGAGGUACUGGACAUUCCUUCUUCAACCCCUCAAGAAAUUGUUAAGUCGAAAGAUUAGUAAUUCUCAACUCUGAUUAAAAUAAUCGAUAUGUAUGAAGAUAAGCGAGAUGAAUUGAUAAUGUUGUCUAAAAUUUCGAAUUAUGAAUCUUUACAAAAGAGGGUGAGUUGUCGUAUGAUAAAAGGAGCCUGCUCCGAUCUAGAUAGAACACAGCAGGUAAAGUAGAAGUGAUAUCUGCGAGGAGCCUUGACACCAGCAAGGACUCAGUCCGAAGAGUACGAGUUGCUUUCUGGUUUGUUGAAUGAAAGAAGUAGAAAAAAAUAUAA
antisense: UUAUAUUUUUUUCUACUUCUUUCAUUCAACAAACCAGAAAGCAACUCGUACUCUUCGGACUGAGUCCUUGCUGGUGUCAAGGCUCCUCGCAGAUAUCACUUCUACUUUACCUGCUGUGUUCUAUCUAGAUCGGAGCAGGCUCCUUUUAUCAUACGACAACUCACCCUCUUUUGUAAAGAUUCAUAAUUCGAAAUUUUAGACAACAUUAUCAAUUCAUCUCGCUUAUCUUCAUACAUAUCGAUUAUUUUAAUCAGAGUUGAGAAUUACUAAUCUUUCGACUUAACAAUUUCUUGAGGGGUUGAAGAAGGAAUGUCCAGUACCUCAAUCUCUAGAAAUCUUUGACCGUCGAUCUAUAACAUCACAUUUUUAUACGUUUUAUUUAUACACCUGAUACUCAC
Take B7: the “% decrease =/− SE TP1” value came out at 2 ± 7%.
